Test results as given in PMC5920536.

Columns and labels:
[1] = target: T1, full-length human TRPML1 (transient receptor potential mucolipin 1) (human), Q9GZU1; test: cryo-EM structure; conditions: remark: other sources report otherwise
T1 chain: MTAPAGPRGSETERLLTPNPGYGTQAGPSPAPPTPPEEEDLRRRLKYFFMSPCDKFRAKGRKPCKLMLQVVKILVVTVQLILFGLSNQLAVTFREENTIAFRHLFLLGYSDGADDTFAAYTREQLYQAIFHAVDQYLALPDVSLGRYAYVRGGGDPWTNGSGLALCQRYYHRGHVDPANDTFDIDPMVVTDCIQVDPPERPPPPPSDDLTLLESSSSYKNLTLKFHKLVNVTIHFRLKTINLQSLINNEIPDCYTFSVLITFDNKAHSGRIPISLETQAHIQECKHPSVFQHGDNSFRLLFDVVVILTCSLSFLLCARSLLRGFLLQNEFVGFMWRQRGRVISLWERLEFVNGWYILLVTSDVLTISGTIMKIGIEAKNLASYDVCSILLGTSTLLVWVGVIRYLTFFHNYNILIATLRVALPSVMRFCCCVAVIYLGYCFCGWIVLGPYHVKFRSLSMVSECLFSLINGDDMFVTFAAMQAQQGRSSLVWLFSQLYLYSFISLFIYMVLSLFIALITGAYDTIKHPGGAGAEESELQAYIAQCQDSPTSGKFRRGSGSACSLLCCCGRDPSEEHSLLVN

[2] = target: T1, full-length human TRPML1 (transient …); test: cryo-EM structure; conditions: remark: other sources report otherwise

- stoichiometry N [1]: 4
- stoichiometry N [2]: 4
B1: full-length human TRPML1 (transient receptor potential mucolipin 1), Q9GZU1 1-580 (natural protein)
chain: MTAPAGPRGSETERLLTPNPGYGTQAGPSPAPPTPPEEEDLRRRLKYFFMSPCDKFRAKGRKPCKLMLQVVKILVVTVQLILFGLSNQLAVTFREENTIAFRHLFLLGYSDGADDTFAAYTREQLYQAIFHAVDQYLALPDVSLGRYAYVRGGGDPWTNGSGLALCQRYYHRGHVDPANDTFDIDPMVVTDCIQVDPPERPPPPPSDDLTLLESSSSYKNLTLKFHKLVNVTIHFRLKTINLQSLINNEIPDCYTFSVLITFDNKAHSGRIPISLETQAHIQECKHPSVFQHGDNSFRLLFDVVVILTCSLSFLLCARSLLRGFLLQNEFVGFMWRQRGRVISLWERLEFVNGWYILLVTSDVLTISGTIMKIGIEAKNLASYDVCSILLGTSTLLVWVGVIRYLTFFHNYNILIATLRVALPSVMRFCCCVAVIYLGYCFCGWIVLGPYHVKFRSLSMVSECLFSLINGDDMFVTFAAMQAQQGRSSLVWLFSQLYLYSFISLFIYMVLSLFIALITGAYDTIKHPGGAGAEESELQAYIAQCQDSPTSGKFRRGSGSACSLLCCCGRDPSEEHSLLVN
